Test results published in publication PMC9482650, “Quantitative fragmentomics allow affinity mapping of interactomes” (Nature Communications, 2022).

Assays:
Assay in all cases: holdup assay
Design in all cases: key: below the threshold = too weak to quantify, mostly under pKd 3.1 to 4
[1] = target: T1, APBA2_1, Q99767
T1 sequence (Q99767 563-664, limits assumed, looked up): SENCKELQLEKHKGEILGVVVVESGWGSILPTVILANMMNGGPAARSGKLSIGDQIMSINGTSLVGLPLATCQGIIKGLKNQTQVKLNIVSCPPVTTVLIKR

[2] = target: T2, APBA3_1, O96018
T2 sequence (O96018 389-490, limits assumed, looked up): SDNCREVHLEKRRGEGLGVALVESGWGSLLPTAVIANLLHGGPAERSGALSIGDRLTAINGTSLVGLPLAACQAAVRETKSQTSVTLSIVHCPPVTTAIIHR

[3] = target: T3, DFNB31_3, Q9P202
T3 sequence (Q9P202 811-907, limits assumed, looked up): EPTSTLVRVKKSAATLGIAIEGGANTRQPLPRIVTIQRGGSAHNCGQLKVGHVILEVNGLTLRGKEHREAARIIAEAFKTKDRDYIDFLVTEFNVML

[4] = target: DLG2_3, Q15700
[5] = target: DLG4_2, P78352
DLG4_2, P78352, sequence (P78352 155-259): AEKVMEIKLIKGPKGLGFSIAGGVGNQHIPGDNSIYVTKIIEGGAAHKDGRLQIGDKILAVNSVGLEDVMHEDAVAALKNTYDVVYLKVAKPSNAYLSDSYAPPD

[6] = target: FRMPD2_2, Q68DX3
FRMPD2_2, Q68DX3, sequence (Q68DX3 944-1038): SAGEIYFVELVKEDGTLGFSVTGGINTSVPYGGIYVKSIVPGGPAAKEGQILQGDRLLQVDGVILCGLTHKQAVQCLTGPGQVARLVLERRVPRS

[7] = target: FRMPD2_3, Q68DX3
FRMPD2_3, Q68DX3, sequence (Q68DX3 1073-1166): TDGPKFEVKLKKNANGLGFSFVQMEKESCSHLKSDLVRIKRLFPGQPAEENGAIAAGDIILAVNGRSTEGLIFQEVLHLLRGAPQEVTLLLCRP

[8] = target: GIPC2, Q8TF65
GIPC2, Q8TF65, sequence (Q8TF65 112-203): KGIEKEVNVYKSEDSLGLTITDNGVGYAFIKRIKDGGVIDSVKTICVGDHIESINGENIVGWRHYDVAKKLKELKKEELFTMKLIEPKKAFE

[9] = target: GORASP1, Q9BQQ3
GORASP1, Q9BQQ3, sequence (Q9BQQ3 1-208): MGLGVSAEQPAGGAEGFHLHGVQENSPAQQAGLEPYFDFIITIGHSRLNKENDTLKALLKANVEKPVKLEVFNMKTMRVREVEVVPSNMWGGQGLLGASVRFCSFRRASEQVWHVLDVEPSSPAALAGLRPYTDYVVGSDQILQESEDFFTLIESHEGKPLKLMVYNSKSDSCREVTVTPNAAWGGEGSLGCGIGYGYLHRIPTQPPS

[10] = target: T4, GRIP1_2, Q9Y3R0
T4 sequence (Q9Y3R0 145-248, limits assumed, looked up): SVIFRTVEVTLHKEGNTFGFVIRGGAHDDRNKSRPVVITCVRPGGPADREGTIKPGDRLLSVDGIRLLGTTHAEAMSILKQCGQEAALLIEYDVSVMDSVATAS

[11] = target: GRIP2_7, Q9C0E4
GRIP2_7, Q9C0E4, sequence (Q9C0E4 934-1023): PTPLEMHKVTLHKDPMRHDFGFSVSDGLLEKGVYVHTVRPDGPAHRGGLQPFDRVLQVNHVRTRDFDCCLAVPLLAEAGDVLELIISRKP

[12] = target: Inadl_1, Q8NI35
Inadl_1, Q8NI35, sequence (Q8NI35 113-229): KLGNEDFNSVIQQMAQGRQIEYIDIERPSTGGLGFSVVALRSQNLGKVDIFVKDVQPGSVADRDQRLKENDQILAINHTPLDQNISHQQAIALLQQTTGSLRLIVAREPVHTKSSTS

[13] = target: Inadl_2, Q8NI35
Inadl_2, Q8NI35, sequence (Q8NI35 238-335): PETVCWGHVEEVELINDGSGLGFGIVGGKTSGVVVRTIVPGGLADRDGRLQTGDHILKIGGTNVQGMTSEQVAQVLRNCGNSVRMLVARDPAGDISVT

[14] = target: MAGI2_6, Q86UL8
MAGI2_6, Q86UL8, sequence (Q86UL8 1141-1229): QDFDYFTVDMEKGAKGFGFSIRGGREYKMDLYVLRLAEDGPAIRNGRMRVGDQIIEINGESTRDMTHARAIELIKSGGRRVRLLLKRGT

[15] = target: NHERF4_2, Q86UT5
NHERF4_2, Q86UT5, sequence (Q86UT5 220-308): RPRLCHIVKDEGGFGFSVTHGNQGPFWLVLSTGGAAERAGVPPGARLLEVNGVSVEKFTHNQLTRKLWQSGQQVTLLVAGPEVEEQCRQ

[16] = target: T5, PDZD7_3, Q9H5P4
T5 sequence (Q9H5P4 857-944, limits assumed, looked up): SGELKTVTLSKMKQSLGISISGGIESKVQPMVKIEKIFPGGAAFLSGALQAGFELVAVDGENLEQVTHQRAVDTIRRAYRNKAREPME

[17] = target: T6, PDZRN3_1, Q9UPQ7
T6 sequence (Q9UPQ7 244-349, limits assumed, looked up): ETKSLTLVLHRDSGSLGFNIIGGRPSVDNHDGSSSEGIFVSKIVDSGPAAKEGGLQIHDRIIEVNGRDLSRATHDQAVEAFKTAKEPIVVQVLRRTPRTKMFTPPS

[18] = target: PDZRN4_1, Q6ZMN7
PDZRN4_1, Q6ZMN7, sequence (Q6ZMN7 213-318): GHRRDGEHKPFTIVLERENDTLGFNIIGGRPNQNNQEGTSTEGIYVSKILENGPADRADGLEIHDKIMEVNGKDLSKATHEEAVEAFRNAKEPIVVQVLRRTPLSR

[19] = target: PICK1, Q9NRD5
PICK1, Q9NRD5, sequence (Q9NRD5 17-115): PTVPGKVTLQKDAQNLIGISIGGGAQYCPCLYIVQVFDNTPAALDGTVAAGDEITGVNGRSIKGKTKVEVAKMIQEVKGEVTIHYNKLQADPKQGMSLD

[20] = target: T7, PTPN13_1, Q12923
T7 sequence (Q12923 1088-1188, limits assumed, looked up): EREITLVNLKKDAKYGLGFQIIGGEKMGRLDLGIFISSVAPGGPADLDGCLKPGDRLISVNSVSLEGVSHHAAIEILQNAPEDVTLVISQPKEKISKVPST

[21] = target: PTPN3, P26045
PTPN3, P26045, sequence (P26045 505-587): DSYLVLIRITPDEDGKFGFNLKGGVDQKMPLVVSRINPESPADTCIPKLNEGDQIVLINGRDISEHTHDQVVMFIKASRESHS

[22] = target: SCRIB_2, Q14160
SCRIB_2, Q14160, sequence (Q14160 857-960): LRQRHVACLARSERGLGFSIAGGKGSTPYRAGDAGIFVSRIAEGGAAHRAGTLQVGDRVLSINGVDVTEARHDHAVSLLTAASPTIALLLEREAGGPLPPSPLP

[23] = target: T8, SNTB1, Q13884
T8 sequence (Q13884 107-205, limits assumed, looked up): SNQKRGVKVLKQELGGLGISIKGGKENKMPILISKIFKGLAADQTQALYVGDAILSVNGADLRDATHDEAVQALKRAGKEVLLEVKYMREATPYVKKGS

[24] = target: T9, SYNJ2BP, P57105
T9 sequence (P57105 8-110, limits assumed, looked up): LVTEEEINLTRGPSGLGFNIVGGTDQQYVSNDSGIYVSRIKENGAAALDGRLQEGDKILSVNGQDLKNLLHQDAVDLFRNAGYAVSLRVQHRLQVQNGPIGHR

[25] = target: T10, TIAM2, Q8IVF5
T10 sequence (Q8IVF5 885-986, limits assumed, looked up): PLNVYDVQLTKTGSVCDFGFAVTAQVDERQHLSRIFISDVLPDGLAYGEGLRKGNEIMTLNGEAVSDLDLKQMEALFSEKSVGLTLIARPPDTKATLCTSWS

[26] = target: T11, TJP3_3, O95049
T11 sequence (O95049 375-456, limits assumed, looked up): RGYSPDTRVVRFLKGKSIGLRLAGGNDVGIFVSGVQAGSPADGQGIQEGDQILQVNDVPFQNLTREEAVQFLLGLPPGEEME

[27] = plain residues with an end cap or a label only (N-terminal biotin on a linker: ado-ado)
[28] = plain residues with an end cap or a label only (N-terminal biotin on a linker: ahx)

Measured: pKd

B1: FMNL3, Q8IVF7 (peptide)
chain: DAAHHDESNC
below the threshold: [1]; [27] | [2]; [27] | [5]; [27] | [6]; [27] | [7]; [27] | [9]; [27] | [10]; [27] | [11]; [27] | [12]; [27] | [13]; [27] | [14]; [27] | [15]; [27] | [16]; [27] | [17]; [27] | [18]; [27] | [19]; [27] | [20]; [27] | [21]; [27] | [22]; [27] | [23]; [27] | [26]; [27]
3.99: [3]; [27]
3.68: [8]; [27]
3.62: [4]; [27]
3.8: [25]; [27]
3.5: [24]; [27]

B2: USH1C, Q9Y6N9 (peptide)
chain: KEYDDELTFF
3.56: [9]; [28]
4.09: [13]; [28]
3.64: [16]; [28]
below the threshold: [1]; [28] | [2]; [28] | [4]; [28] | [5]; [28] | [6]; [28] | [7]; [28] | [8]; [28] | [10]; [28] | [11]; [28] | [12]; [28] | [14]; [28] | [15]; [28] | [17]; [28] | [18]; [28] | [19]; [28] | [20]; [28] | [22]; [28] | [23]; [28] | [24]; [28] | [25]; [28] | [26]; [28]
3.88: [3]; [28]
3.71: [21]; [28]
